According to the supplement of paper PMC9876800:

Tested on: peptide library, one residue held at a place counted from the S/T acceptor
Experiment: relative phosphorylation of the sub-library (ratio to the mean residue at this position); human; higher = residue favoured
Summary of the method: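 Relative sub-library phosphorylation is the ratio of each sub-library's signal to the mean residue at that position. The signal came from phosphorimaging of spots on streptavidin membranes, quantified by densitometry, after purified recombinant kinases reacted with biotinylated degenerate peptide sub-libraries in 384-well plates. Reactions held 50 μM peptide and 50 μM ATP spiked with γ-32P-ATP for 90 min under kinase-specific conditions.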

MOK, construct: aa1-343, sequence (Q9UQ07 1-343, looked up): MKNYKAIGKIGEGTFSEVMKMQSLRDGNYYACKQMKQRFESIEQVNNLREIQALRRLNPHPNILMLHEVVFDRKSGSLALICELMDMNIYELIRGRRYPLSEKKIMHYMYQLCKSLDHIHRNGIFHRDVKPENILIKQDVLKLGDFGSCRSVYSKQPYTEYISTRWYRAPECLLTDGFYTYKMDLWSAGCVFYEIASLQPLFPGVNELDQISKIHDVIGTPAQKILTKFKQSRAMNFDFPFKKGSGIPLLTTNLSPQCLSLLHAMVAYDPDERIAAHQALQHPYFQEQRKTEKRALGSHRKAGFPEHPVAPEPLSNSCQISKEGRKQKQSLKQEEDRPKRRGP

MKNK1, construct: Full length (D165-205) (from UniProt Q9BUB5)
relative phosphorylation
Settings	at +1	at +2	at +3	at +4	at -1	at -2	at -3	at -4	at -5
A fixed	0.571	0.643	0.663	0.758	0.958	0.862	0.744	0.882	1.25
D fixed	0.289	0.373	0.434	0.925	0.355	0.324	0.281	0.361	0.43
E fixed	0.603	0.351	0.429	0.903	0.342	0.279	0.315	0.37	0.404
F fixed	1.41	0.677	0.771	0.706	0.395	0.433	0.392	0.676	0.727
G fixed	0.464	0.534	1.49	0.967	1.12	0.736	1.22	1.3	0.945
H fixed	0.892	1.83	1.23	1.13	0.897	0.748	1.04	1.12	0.866
I fixed	1.05	0.875	0.597	0.687	0.304	0.372	0.286	0.625	1
K fixed	1.04	1.03	2.18	1.82	3.23	2.45	3.62	2.16	1.58
L fixed	0.991	0.907	1.01	0.722	0.602	0.519	0.394	0.751	1.2
M fixed	1.86	0.997	0.886	0.805	0.619	0.395	0.494	0.784	0.97
N fixed	0.651	0.817	0.725	1.12	0.905	1.03	0.96	1.07	0.872
P fixed	0.345	0.387	0.806	1.3	1.87	0.55	1.4	1.28	1.25
Q fixed	1.8	0.794	0.856	1.29	0.991	0.747	0.926	0.83	0.762
R fixed	1.34	1.9	1.95	1.49	2.91	5.62	3.5	2.25	1.66
V fixed	0.995	0.781	0.506	0.704	0.429	0.521	0.318	0.76	1.25
W fixed	1.2	1.79	1.17	0.826	0.414	0.685	0.549	0.894	0.832
Y fixed	1.49	2.32	1.3	0.845	0.655	0.725	0.557	0.891	1.01
pThr fixed	0.668	0.629	0.564	1.11	0.278	0.387	0.511	0.639	0.677
pTyr fixed	0.868	1.32	0.756	1.46	0.294	0.373	0.447	0.596	0.942

MOK, construct: aa1-343 (from UniProt Q9UQ07)
relative phosphorylation
Settings	at +1	at +2	at +3	at +4	at -1	at -2	at -3	at -4	at -5
A fixed	2.2	1.04	1.2	0.799	1.12	1.03	0.724	0.79	0.816
D fixed	0.137	0.59	0.511	0.519	0.269	0.168	0.231	0.441	0.526
E fixed	0.15	0.672	0.507	0.506	0.332	0.208	0.246	0.506	0.552
F fixed	0.2	0.836	1.02	0.891	0.786	0.328	0.314	0.739	1.02
G fixed	1.23	1.51	1.52	1.34	1.36	0.824	0.645	0.89	1.04
H fixed	0.389	1.44	1.28	1.09	1.19	0.418	0.564	0.862	1.09
I fixed	0.215	0.624	0.704	0.855	0.511	0.863	0.54	0.73	0.865
K fixed	0.574	1.15	1.15	1.44	1.61	0.8	1.27	1.43	1.36
L fixed	0.204	0.822	0.848	0.904	0.712	1.2	0.587	0.739	0.761
M fixed	0.253	0.935	0.967	1.05	1.22	0.675	0.501	0.946	0.903
N fixed	0.32	0.999	0.93	1.06	0.672	0.498	0.452	0.628	0.784
P fixed	6.41	1.12	1.13	1.11	1.33	5.97	1.26	0.96	1.11
Q fixed	0.567	1.21	0.857	0.964	1	0.629	0.563	0.818	0.916
R fixed	3.21	1.58	1.53	1.74	2.2	1.81	7.98	4.34	2.3
V fixed	0.515	0.551	0.668	0.801	0.631	0.918	0.441	0.622	0.622
W fixed	0.215	0.884	0.985	1.02	0.976	0.331	0.316	0.811	1.02
Y fixed	0.21	1.04	1.19	0.921	1.08	0.323	0.377	0.745	1.31
pThr fixed	0.333	0.394	0.486	0.512	0.236	0.431	0.358	0.532	0.775
pTyr fixed	0.334	0.447	0.651	0.45	0.354	0.268	0.329	0.473	0.804
